In PMC3919604, “Single-molecule characterization of Fen1 and Fen1/PCNA complexes acting on flap substrates” (Nucleic Acids Research, 2013) one finds Kd data, which are given here for 6 molecules.

For data set [1], the system named is Fen1 (flap endonuclease 1) (Sulfolobus solfataricus). As to the kind of experiment: smFRET. The following applies: 10 mM Ca2+, no PCNA; 10 mM Ca2+ (prevents cleavage), 20 C / room temperature; binding buffer, salt and pH not in held text (hybridization buffer 20 mM Tris-HCl pH 7.8, 25 mM NaCl).
Data set [2] deals with Fen1 (flap endonuclease 1);PCNA heterotrimer (PCNA1/PCNA2/PCNA3) (Sulfolobus solfataricus;Sulfolobus solfataricus). The data set is described as follows: smFRET. The following applies: Fen1 titrated with 2 uM PCNA, 10 mM Ca2+; 10 mM Ca2+ (prevents cleavage), 20 C / room temperature; binding buffer, salt and pH not in held text (hybridization buffer 20 mM Tris-HCl pH 7.8, 25 mM NaCl).

The subject of data set [3] is Fen1 (flap endonuclease 1) (Sulfolobus solfataricus). As to the kind of experiment: ensemble FRET. The following applies: 10 mM Ca2+, no PCNA, 20 C; 10 mM Ca2+ (prevents cleavage), 20 C / room temperature; binding buffer, salt and pH not in held text (hybridization buffer 20 mM Tris-HCl pH 7.8, 25 mM NaCl).
Data set [4] relates to Fen1 (flap endonuclease 1);PCNA heterotrimer (PCNA1/PCNA2/PCNA3) (Sulfolobus solfataricus;Sulfolobus solfataricus). As to the kind of experiment: ensemble FRET. The following applies: Fen1 titrated with 2 uM PCNA, 10 mM Ca2+, 20 C; 10 mM Ca2+ (prevents cleavage), 20 C / room temperature; binding buffer, salt and pH not in held text (hybridization buffer 20 mM Tris-HCl pH 7.8, 25 mM NaCl).

The subject of data set [5] is Fen1 (flap endonuclease 1) (Sulfolobus solfataricus). The data set is described as follows: FRET titration. The following applies: 10 mM Ca2+, no PCNA; 10 mM Ca2+ (prevents cleavage), 20 C / room temperature; binding buffer, salt and pH not in held text (hybridization buffer 20 mM Tris-HCl pH 7.8, 25 mM NaCl).
Data set [6] deals with Fen1 (flap endonuclease 1);PCNA heterotrimer (PCNA1/PCNA2/PCNA3) (Sulfolobus solfataricus;Sulfolobus solfataricus). The data set is described as follows: FRET titration. The following applies: Fen1 titrated with 2 uM PCNA, 10 mM Ca2+; 10 mM Ca2+ (prevents cleavage), 20 C / room temperature; binding buffer, salt and pH not in held text (hybridization buffer 20 mM Tris-HCl pH 7.8, 25 mM NaCl).

For data set [7] the test system is unchanged. As to the kind of experiment: PIFE (Cy3). The following applies: PCNA titrated with 5 uM Fen1, 10 mM Ca2+; 10 mM Ca2+ (prevents cleavage), 20 C / room temperature; binding buffer, salt and pH not in held text (hybridization buffer 20 mM Tris-HCl pH 7.8, 25 mM NaCl).
The test system of data set [8] is Fen1 (flap endonuclease 1);PCNA12 heterodimer (PCNA1/PCNA2) (Sulfolobus solfataricus;Sulfolobus solfataricus). As to the kind of experiment: PIFE (Cy3). The following applies: PCNA12 titrated with 5 uM Fen1, 10 mM Ca2+; 10 mM Ca2+ (prevents cleavage), 20 C / room temperature; binding buffer, salt and pH not in held text (hybridization buffer 20 mM Tris-HCl pH 7.8, 25 mM NaCl).

Data set [9] deals with Fen1 (flap endonuclease 1);PCNA-Cy5 heterotrimer (Sulfolobus solfataricus;Sulfolobus solfataricus). The data set is described as follows: intermolecular FRET. The following applies: PCNA-Cy5 titrated with 5 uM Fen1; substrate of the Kd fit not explicitly stated; 10 mM Ca2+ (prevents cleavage), 20 C / room temperature; binding buffer, salt and pH not in held text (hybridization buffer 20 mM Tris-HCl pH 7.8, 25 mM NaCl).

In data set [10] the target is Fen1 (Saccharolobus solfataricus) (UniProt Q980U8). The following applies: cited from earlier work.
Data set [11] addresses T1, Cy5 acceptor-labelled Sulfolobus solfataricus PCNA heterotrimer (PCNA1 N131C-Cy5, PCNA2, PCNA3) (Sulfolobus solfataricus, UniProt P57766 1-249; Q97Z84 1-245; P57765 1-244, N131C, Cy5-maleimide on the single cysteine of N131C).
T1 construct: PCNA1 subunit, Sulfolobus solfataricus, with the point mutation N131C; PCNA2 subunit, Sulfolobus solfataricus, unlabelled; PCNA3 subunit, Sulfolobus solfataricus, unlabelled; Labelling yield about 80%; also called PCNA-Cy5; acceptor-labelled PCNA; copies: + +
T1 sequence (looked up) 1: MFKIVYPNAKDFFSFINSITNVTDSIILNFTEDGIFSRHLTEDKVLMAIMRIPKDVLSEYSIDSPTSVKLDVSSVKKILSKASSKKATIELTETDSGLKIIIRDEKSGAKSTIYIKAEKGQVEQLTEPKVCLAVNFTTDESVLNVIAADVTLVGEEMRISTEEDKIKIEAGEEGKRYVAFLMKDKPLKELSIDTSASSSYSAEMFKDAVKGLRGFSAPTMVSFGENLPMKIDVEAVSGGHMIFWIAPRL
T1 sequence (looked up) 2: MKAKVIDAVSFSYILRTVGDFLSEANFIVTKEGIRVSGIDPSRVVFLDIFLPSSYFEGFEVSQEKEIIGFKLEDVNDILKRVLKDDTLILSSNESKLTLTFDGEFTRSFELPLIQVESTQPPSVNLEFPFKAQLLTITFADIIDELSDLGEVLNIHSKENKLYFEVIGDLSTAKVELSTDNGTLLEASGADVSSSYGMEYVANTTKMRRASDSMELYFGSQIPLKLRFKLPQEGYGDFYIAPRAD
T1 sequence (looked up) 3: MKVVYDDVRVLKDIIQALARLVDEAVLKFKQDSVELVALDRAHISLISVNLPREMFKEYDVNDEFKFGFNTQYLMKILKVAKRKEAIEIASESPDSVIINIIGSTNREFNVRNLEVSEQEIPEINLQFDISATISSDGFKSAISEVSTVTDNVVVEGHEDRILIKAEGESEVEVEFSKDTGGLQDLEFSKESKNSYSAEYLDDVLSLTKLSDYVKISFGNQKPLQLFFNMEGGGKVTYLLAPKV
The data set is described as follows: FRET or BRET; ensemble inter-molecular FRET between Cy3-labelled double-flap DNA and Cy5-labelled PCNA; PCNA-Cy5 titrated, DNA pre-equilibrated with 5 uM Fen1. The following applies: both partners purified. On the technique in general: In BRET a luciferase serves as donor, and the signal depends on an acceptor being close.

Data set [12] deals with T2, Sulfolobus solfataricus PCNA heterotrimer (PCNA1, PCNA2, PCNA3) (Sulfolobus solfataricus, UniProt P57766 1-249; Q97Z84 1-245; P57765 1-244).
T2 construct: PCNA1 subunit of the heterotrimeric PCNA, Sulfolobus solfataricus; PCNA2 subunit of the heterotrimeric PCNA, Sulfolobus solfataricus; PCNA3 subunit of the heterotrimeric PCNA, Sulfolobus solfataricus; also called heterotrimeric PCNA; sliding clamp; copies: + +
T2 sequence (looked up) 1: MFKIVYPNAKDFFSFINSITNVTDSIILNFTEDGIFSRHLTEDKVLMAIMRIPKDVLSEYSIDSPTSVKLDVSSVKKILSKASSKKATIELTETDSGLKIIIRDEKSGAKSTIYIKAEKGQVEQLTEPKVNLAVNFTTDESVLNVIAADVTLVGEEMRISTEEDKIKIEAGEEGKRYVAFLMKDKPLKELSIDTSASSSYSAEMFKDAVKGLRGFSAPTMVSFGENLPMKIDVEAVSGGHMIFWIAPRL
T2 sequence (looked up) 2: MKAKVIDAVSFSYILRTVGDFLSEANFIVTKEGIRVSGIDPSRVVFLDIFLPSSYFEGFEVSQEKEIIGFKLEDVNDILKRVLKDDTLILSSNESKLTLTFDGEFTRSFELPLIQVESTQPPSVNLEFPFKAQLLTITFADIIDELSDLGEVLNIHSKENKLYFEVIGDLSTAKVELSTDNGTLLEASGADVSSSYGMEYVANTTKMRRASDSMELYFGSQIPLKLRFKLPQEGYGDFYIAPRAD
T2 sequence (looked up) 3: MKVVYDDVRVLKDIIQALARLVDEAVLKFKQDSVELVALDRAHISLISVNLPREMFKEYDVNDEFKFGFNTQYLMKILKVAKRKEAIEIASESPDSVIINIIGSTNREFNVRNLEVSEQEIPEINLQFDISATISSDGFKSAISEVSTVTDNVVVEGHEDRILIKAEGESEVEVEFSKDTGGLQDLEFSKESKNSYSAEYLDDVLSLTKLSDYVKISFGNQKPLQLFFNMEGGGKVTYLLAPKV
As to the kind of experiment: other fluorescence titration; protein-induced fluorescence enhancement (PIFE) of Cy3 on the 3F-duplex of a double-flap DNA; PCNA or PCNA12 titrated into DNA pre-incubated with 5 uM Fen1, 10 mM Ca2+; 30 mM HEPES pH 7.6, 40 mM KCl, 5% glycerol, 0.1 mg/ml BSA, 20 C. The following applies: both partners purified.

Data set [13] addresses T3, Sulfolobus solfataricus PCNA1-PCNA2 heterodimer (PCNA12) (Sulfolobus solfataricus, UniProt P57766 1-249; Q97Z84 1-245).
T3 construct: PCNA1 subunit, Sulfolobus solfataricus; PCNA2 subunit, Sulfolobus solfataricus; also called PCNA12 complex
T3 sequence (looked up) 1: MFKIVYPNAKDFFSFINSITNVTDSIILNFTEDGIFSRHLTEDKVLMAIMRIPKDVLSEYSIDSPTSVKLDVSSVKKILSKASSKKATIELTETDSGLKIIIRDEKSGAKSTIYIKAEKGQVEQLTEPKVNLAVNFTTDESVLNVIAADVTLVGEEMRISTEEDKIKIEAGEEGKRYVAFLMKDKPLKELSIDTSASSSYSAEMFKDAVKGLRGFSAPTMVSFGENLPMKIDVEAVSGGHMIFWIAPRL
T3 sequence (looked up) 2: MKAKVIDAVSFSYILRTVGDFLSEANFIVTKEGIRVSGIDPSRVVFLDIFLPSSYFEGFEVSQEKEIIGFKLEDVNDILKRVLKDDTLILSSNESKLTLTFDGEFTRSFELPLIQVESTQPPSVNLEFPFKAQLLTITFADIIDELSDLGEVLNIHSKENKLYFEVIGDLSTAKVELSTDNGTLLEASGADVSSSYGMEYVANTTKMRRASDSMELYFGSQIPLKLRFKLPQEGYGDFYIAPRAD
The description is as above. The following applies: both partners purified.

For “Flap-23 double flap, single-molecule, Cy3/Cy5, biotin”, the Kd in data set [1] came out at 23 nM; in data set [2], 1.6 nM.

Regarding “Flap-12/23/13 double flap (global fit of three labelled versions)”, the dissociation constant Kd in [3] was determined as 14 nM; in data set [4] it was 3 nM.

As for “5'-flap substrate lacking the 3' extrahelical nucleotide”, the Kd in data set [5] was greater than 10000 nM; in data set [6] it was 700 nM.

Double flap, Cy3 in 3F-duplex: the Kd in data set [7] came out at 160 nM; in data set [8], 360 nM; in data set [9], 117 nM.

Consider PCNA (from UniProt P57766), for which the Kd in data set [10] is 210 nM.

B1: Sulfolobus solfataricus Flap endonuclease 1 (Fen1) (enzyme, UniProt Q980U8 1-349, looked up)
chain: MDLADLVKDVKRELSFSELKGKRVSIDGYNALYQFLAAIRQPDGTPLMDSQGRVTSHLSGLFYRTINILEEGVIPIYVFDGKPPEQKSEELERRRKAKEEAERKLERAKSEGKIEELRKYSQAILRLSNIMVEESKKLLRAMGIPIVQAPSEGEAEAAYLNKLGLSWAAASQDYDAILFGAKRLVRNLTITGKRKLPNKDVYVEIKPELIETEILLKKLGITREQLIDIGILIGTDYNPDGIRGIGPERALKIIKKYGKIEKAMEYGEISKKDINFNIDEIRGLFLNPQVVKPEEALDLNEPNGEDIINILVYEHNFSEERVKNGIERLTKAIKEAKGASRQTGLDRWF
notes: Flap endonuclease 1 (Fen1), Sulfolobus solfataricus
As for B1, the figures for the Kd in [11], in [12] and in [13] were 117 ± 34 nM, 160 ± 14 nM and 360 ± 30 nM, respectively.

As usually defined, the Kd is the concentration at which binding is half-saturated.
